Changes are numbered by the printed parent chain.
How the values were obtained:
[1] = target: T1, LRP6 E1E2 variants with LRP5 BMD substitutions (Homo sapiens, UniProt O75581, N185S); assay: Steady-state affinity for LRP6 E1E2 variants carrying LRP5 BMD substitutions; format: binding; settings: LRP6 Asn185 to Ser vs wild type LRP6 E1E2
T1 construct: construct E1E2-amino acids A20-E631 of LPR6; made in house; host or cells: insect cells (Tni, baculovirus)
T1 sequence (O75581 20-631 N185S): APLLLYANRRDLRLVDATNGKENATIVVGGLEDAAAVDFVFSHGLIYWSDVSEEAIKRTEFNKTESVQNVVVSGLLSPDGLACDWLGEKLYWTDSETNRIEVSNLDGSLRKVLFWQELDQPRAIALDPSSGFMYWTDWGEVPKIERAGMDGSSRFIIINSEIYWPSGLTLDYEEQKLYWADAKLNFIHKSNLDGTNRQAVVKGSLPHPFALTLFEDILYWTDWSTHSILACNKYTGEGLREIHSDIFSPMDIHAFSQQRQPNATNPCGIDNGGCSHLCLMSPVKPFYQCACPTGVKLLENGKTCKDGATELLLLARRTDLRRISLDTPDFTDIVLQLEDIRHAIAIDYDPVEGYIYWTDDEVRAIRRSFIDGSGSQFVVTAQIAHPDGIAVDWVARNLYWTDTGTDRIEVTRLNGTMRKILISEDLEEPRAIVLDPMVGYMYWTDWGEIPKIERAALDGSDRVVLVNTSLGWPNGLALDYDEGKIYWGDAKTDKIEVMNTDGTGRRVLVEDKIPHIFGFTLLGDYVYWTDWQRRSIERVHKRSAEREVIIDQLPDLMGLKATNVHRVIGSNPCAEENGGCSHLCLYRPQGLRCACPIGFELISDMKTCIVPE
Procedure: (§1) FIG. 13. Introduction of LRP5 BMD substitutions into LRP6 E1E2 lowers affinity for Wnt inhibitors. The five substitutions characterized are indicated on the y-axis. Steady-state affinity measurements were made for Wnt9b, Dkk1, and sclerostin binding to each of the LRP6 variants.
(§2) Binding kinetics were measured by biolayer interferometry using an Octet Red instrument (ForteBio) as previously described (11). Streptavidin (SA) biosensors were loaded with biotinylated hLRP6 in 50 mMTris, pH 8, 300 mM NaCl, 5% (v/v) glycerol, and 0.05% (w/v) Triton X-100. The loaded biosensors were washed in the same buffer before carrying out association and dissociation measurements for the indicated times. The Kd of each interaction was determined using steady state-analysis through the Octet Red software v6.3. Each reported value represents an average of three or more experiments at different concentrations, with a fitted experimental curve for which the square of the correlation coefficient (R^2) is above 0.96.
(§3) Cells transfected with LRP5 variants carrying BMD mutations show reduced binding to sclerostin and are less sensitive to sclerostin inhibition of Wnt10b or Wnt6 signaling (70). To further test the effects of the BMD substitutions, we introduced several of them into LRP6 E1E2, with the results shown in FIG. 13. LRP6 E1E2 Gly158Val could not be expressed in insect cells. […] Importantly, not only is the binding to sclerostin affected (70), but the binding of Dkk1 to its E1 interaction site is also impaired.

[2] = target: T2, LRP6 E1E2 variants with LRP5 BMD substitutions (Homo sapiens, UniProt O75581, R141M); assay: as above; format: binding; settings: LRP6 Arg141Met vs wild type LRP6 E1E2
T2 construct: construct E1E2-amino acids A20-E631 of LPR6; made in house; host or cells: insect cells (Tni, baculovirus)
T2 sequence (O75581 20-631 R141M): T1 sequence (O75581 20-631 N185S) with R122M, S166N
Procedure: as §1, §2, §3

[3] = system: LRP6 E1E2 variants with LRP5 BMD substitutions; assay: as above; format: binding, human
Procedure: as §1, §2, §3

[4] = target: T3, LRP6 E4 (Homo sapiens, UniProt O75581); assay: Biolayer interferometry binding to LRP6 E4
T3 construct: construct E4-T933-Q1253; made in house; host or cells: Tni insect cells (baculovirus, secreted)
T3 sequence (O75581 933-1253): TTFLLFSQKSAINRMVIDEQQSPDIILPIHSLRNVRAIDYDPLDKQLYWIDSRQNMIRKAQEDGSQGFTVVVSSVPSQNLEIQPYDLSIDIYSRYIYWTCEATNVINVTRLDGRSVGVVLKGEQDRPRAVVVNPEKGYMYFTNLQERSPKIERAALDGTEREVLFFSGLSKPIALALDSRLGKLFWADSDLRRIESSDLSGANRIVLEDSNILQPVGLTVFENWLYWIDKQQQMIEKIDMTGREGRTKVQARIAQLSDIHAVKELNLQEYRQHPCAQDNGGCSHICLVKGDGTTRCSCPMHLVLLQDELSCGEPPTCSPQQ
Procedure: as §2
The interaction of the different Dkks and sclerostin with various domains of LRP6 was measured using a biolayer interferometry assay (11). Purified receptors contained individual β-propeller-EGF-like units (E1, E2, or E4), two β-propellers (E1E2 or E3E4), or four β-propellers (E1E4))—as follows:
Human LRP6: construct E1E4-amino acids A20-Q1253 of LPR6; construct E1E2-amino acids A20-E631 of LPR6; construct E3E4 amino acids E631-Q1253 of LPR6; construct E1-amino acids A20-D325 of LPR6; construct E2-amino acids […]-E631 of LPR6; construct E4-T933-Q1253. The individual LRP6 β-propeller E3 could not be expressed.

loss in affinity for LRP6 E1E2 Asn185Ser [1] | loss in affinity for LRP6 E1E2 Arg141Met [2] | effect of LRP6 BMD mutations on binding to LRP6 E1E2 (in words) [3] | binding to LRP6 E4 (in words) [4] | Substance
59 fold | 31 fold | disrupt the binding | – | sclerostin: Sclerostin protein, Wnt pathway inhibitor, expressed in insect cells (LPNAIGR)
183 fold | 29 fold | disrupt the binding | undetectable | Dkk1: Dickkopf 1 protein, Wnt pathway inhibitor, expressed in insect cells (NSNAIKN)

From patent publication US20140235820A1, “METHODS AND COMPOSITIONS FOR MODULATING THE Wnt PATHWAY” (Genentech, Inc., priority 2010, published 2014)
